# Assay results: publication PMC9952701
# Target: insulin-like growth factor receptor type 1 (IGF1R) (mouse (endogenous in HEI-OC1)) (UniProt Q60751)
# Sequence of UniProt Q60751 (Q60751 31-1373): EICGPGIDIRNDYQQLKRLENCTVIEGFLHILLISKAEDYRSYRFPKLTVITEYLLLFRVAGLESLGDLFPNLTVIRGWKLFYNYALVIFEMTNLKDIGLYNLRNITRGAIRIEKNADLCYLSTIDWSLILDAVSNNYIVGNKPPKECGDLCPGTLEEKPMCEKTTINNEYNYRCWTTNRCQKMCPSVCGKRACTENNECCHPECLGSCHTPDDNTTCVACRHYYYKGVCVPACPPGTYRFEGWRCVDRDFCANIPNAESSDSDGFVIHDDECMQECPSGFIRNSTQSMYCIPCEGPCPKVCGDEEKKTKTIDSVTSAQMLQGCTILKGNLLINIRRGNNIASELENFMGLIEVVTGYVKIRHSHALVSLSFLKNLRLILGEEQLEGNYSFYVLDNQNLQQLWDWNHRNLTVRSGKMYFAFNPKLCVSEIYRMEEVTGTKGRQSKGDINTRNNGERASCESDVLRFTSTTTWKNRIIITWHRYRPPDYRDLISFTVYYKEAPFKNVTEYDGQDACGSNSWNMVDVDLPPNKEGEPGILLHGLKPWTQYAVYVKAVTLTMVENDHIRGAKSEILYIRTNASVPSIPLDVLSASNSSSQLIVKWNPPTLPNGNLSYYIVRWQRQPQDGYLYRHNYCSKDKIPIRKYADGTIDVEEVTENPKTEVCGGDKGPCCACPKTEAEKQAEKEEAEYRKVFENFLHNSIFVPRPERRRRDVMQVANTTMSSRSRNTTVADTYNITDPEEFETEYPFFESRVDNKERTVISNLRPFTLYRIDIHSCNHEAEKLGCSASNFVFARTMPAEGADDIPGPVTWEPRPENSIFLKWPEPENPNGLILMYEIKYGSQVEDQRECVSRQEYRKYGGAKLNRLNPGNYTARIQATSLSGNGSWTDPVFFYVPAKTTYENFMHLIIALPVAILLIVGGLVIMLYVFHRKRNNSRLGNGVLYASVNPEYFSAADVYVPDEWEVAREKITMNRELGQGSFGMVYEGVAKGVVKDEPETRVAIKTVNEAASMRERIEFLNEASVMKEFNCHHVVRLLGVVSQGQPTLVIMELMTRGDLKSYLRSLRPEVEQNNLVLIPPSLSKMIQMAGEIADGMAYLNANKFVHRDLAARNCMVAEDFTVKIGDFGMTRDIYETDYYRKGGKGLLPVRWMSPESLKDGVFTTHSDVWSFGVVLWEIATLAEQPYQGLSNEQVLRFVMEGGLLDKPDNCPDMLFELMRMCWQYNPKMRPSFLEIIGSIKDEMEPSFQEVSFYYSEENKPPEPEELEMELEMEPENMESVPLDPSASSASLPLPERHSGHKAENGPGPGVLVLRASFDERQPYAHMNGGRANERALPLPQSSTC
substance,measurement,value
human recombinant IGF-1 (insulin-like growth factor 1) (from UniProt P05019 49-118) (ligand),"p-IGF1Rβ (Tyr1135) level by Western blot in HEI-OC1 progenitor cells treated with IGF-1 (10 nM), sustained for 30 min, versus untreated control",11 fold
same,"p-IGF1Rβ (Tyr1135) level by Western blot in differentiated HEI-OC1 cells treated with IGF-1 (10 nM) for 5 min, versus untreated control",3.5 fold
